Data as given in patent US8871909B2, “Antibodies inhibiting c-Met dimerization and uses thereof” (Pierre Fabre Medicament, priority 2007, dated 2014).
Each block holds one molecule with its values, some of them ahead of it.

What was measured:
[1] = system: U-87MG, human glioblastoma cells; experiment: U87-MG spheroid growth; assay type: cell-based; details: antibody 10 μg/ml
Procedure: To evaluate the ability of anti-c-Met antibodies to inhibit in vitro tumor growth, in a model closer to an in vivo situation, U-87MG, human glioblastoma cells (ATCC #HTB-14) spheroids were generated. Cells grown as a monolayer were detached with trypsine-EDTA and resuspended into complete cell culture media (DMEM) supplemented with 10% FBS. Spheroids were initiated by inoculating 625 cells into single wells of round bottom, 96 plates in DMEM-10% FCS. To prohibit cell adhesion to a substratum, the plates were pre-coated with polyHEMA in 95% ethanol and air dried at room temperature. The plates were incubated under standard cell culture conditions at 37° C., 5% CO2 in humidified incubators. Purified monoclonal antibodies (10 μg/ml) were added after 3 and 7 days of spheroid culture. HGF (400 ng/ml) was added once after 4 days of culture. Spheroids were kept in culture for at least 10 days. Then, spheroid growth was monitored by measuring the area of spheroids using automeasure module of axiovision software. Area was expressed in μm^2. 8-16 spheroids were evaluated for each condition.
As already described in Example 9 for other Mabs, we evaluate the ability of 224G11 Mab to inhibit in vitro tumor growth in the U87-MG spheroid model. For that purpose, U87-MG cells grown as a monolayer were detached with trypsine-EDTA and resuspended into complete cell culture media. Spheroids were initiated by inoculating 625 cells into single wells of round bottom, 96 plates in DMEM-2.5% FCS. To prohibit cell adhesion to a substratum, the plates were pre-coated with polyHEMA in 95% ethanol and air dried at room temperature. The plates were incubated under standard cell culture conditions at 37° C., 5% CO2 in humidified incubators. Purified monoclonal antibodies (10 μg/ml) were added after 4 and 10 days of spheroid culture. Spheroids were kept in culture for 17 days. Then, spheroid growth was monitored by measuring the area of spheroids using automeasure module of axiovision software. Area was expressed in μm^2. 8-16 spheroids were evaluated for each condition. Spheroid size was measured before addition of antibodies, after 10 days of culture and after 17 days of culture.

SK-HEP-1 cells = experiment: Three-dimensional tubulogenesis assay; assay type: cell-based; details: SK-HEP-1, antibody 10 μg/ml; for inhibitory effect on tube formation in presence of HGF: HGF 100 ng/ml; for agonist effect on tube formation, alone: no HGF
Procedure: SK-HEP-1 cells were seeded at 1·10^4 cells/well in a 24-well plate in DMEM with 10% FCS/Matrigel (50/50) and incubated for 30 min before addition, at the same time, of HGF (100 ng/ml) and antibodies to be tested (10 μg/ml). After 7 days incubation, cells were assessed for tube formation visually. Each tested condition was tested as a triplicate and 3 independent experiments were performed.

c-Met = experiment: BRET analysis of c-Met dimerization on c-Met transfected CHO cells; assay type: cell-based; details: CHO cells expressing C-Met-Rluc and C-Met-K1100A-YFP, supernatants
Description: The technology BRET, used in the step iii) of the process, is well known by the person skill in the art and will be detailed in the following examples. More particularly, BRET (Bioluminescence Resonance Energy Transfer) is a non-radiative energy transfer occurring between a bioluminescent donor (Renilla Luciferase (Rluc)) and a fluorescent acceptor, a mutant of GFP (Green Fluorescent Protein) or YFP (Yellow fluorescent protein). In the present case EYFP (Enhanced Yellow Fluorescent Protein) was used. The efficacy of transfer depends on the orientation and the distance between the donor and the acceptor. Then, the energy transfer can occur only if the two molecules are in close proximity (1-10 nm). This property is used to generate protein-protein interaction assays. Indeed, in order to study the interaction between two partners, the first one is genetically fused to the Renilla Luciferase and the second one to the yellow mutant of the GFP. Fusion proteins are generally, but not obligatory, expressed in mammalian cells. In presence of its membrane permeable substrate (coelenterazine), Rluc emits blue light. If the GFP mutant is closer than 10 nm from the Rluc, an energy transfer can occur and an additional yellow signal can be detected. The BRET signal is measured as the ratio between the light emitted by the acceptor and the light emitted by the donor. So the BRET signal will increase as the two fusion proteins are brought into proximity or if a conformational change bring Rluc and GFP mutant closer.
Then antibodies inhibiting at least 50% cell proliferation were evaluated as supernatants by BRET analysis on c-Met transfected cells. For that purpose, CHO stable cell lines expressing C-Met-Rluc or C-Met-Rluc and C-Met-K1100A-YFP were generated. Cells were distributed in white 96 well microplates in DMEM-F12/FBS 5% culture medium one or two days before BRET experiments. Cells were first cultured at 37° C. with CO2 5% in order to allow cell attachment to the plate. Cells were then starved with 200 μl DMEM/well overnight. Immediately prior to the experiment, DMEM was removed and cells quickly washed with PBS. Cells were incubated in PBS in the presence or absence of antibodies to be tested or reference compounds, 10 min at 37° C. prior to the addition of coelenterazine with or without HGF in a final volume of 50 μl. […]
BRET ratio has been defined previously [Angers et al., Proc. Natl. Acad. Sci. USA, 2000, 97:3684-3689] as: [(emission at 530 nm)−(emission at 485 nm)×Cf]/(emission at 485 nm), where Cf corresponds to (emission at 530 nm)/(emission at 485 nm) for cells expressing Rluc fusion protein alone in the same experimental conditions. […] For the sake of readability, results are expressed in milliBRET units (mBU); mBU corresponds to the BRET ratio multiplied by 1000.

SEMA domain = molecular target: T1, SEMA domain (Homo sapiens, UniProt P08581); experiment: ELISA recognition of recombinant SEMA domain; assay type: binding
T1 construct: the recombinant c-Met-Fc protein and the recombinant SEMA domain
Procedure: To characterize the pattern of recognition of the 3 selected antibodies, 3 ELISA have been set up with the recombinant c-Met protein, its monomeric fragment (obtained by cleavage of the recombinant c-Met-Fc protein and the recombinant SEMA domain.
To perform these ELISA the human dimeric c-Met protein (R&D sytems, cat#358MT) is coated at the concentration of 0.7 μg/ml in PBS overnight at 4° C. After saturation of the plates (Costar #3690) with a 0.5% gelatin solution 2 hours at 37° C., hybridoma supernatants are incubated 1 hour at 37° C. Once rinsed with PBS, the anti-mouse HRP-antibody (Jackson ImmunoResearch, catalog #115-035-164) is added to each well at a 1/5000 dilution in ELISA buffer (0.1% gelatin/0.05% Tween 20 in PBS) and the plates incubated for 1 hour at 37° C. […] The reaction is left to occur for 5 min at room temperature. The reaction is stopped by the addition of 50 μl/well of a 1 M H2SO4 solution and read on a plate reader at 450 nm. The same kind of protocol was performed on monomeric c-Met and SEMA domain but in that cases proteins were coated at 5 and 3 μg/ml respectively.

[2] = Example 9: DMEM-10% FCS, in presence and in absence of HGF 400 ng/ml
[3] = Example 23: DMEM-2.5% FCS, 10 or 17 days of culture

T1 sequence (P08581 27-515 limits assumed): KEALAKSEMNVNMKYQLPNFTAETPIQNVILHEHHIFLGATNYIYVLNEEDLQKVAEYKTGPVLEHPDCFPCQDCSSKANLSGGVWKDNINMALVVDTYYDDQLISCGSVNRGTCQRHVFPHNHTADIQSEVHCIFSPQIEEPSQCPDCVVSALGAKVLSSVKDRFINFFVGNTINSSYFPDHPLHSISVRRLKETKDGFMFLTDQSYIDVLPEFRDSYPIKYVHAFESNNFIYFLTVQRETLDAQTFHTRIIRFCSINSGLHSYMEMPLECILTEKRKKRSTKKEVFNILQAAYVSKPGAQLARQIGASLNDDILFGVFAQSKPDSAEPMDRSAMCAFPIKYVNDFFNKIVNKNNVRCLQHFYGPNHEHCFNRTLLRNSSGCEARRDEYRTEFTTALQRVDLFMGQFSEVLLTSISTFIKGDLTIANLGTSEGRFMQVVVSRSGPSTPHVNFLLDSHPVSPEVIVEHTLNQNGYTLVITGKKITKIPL
Sequence of c-Met (P08581 25-307 limits assumed): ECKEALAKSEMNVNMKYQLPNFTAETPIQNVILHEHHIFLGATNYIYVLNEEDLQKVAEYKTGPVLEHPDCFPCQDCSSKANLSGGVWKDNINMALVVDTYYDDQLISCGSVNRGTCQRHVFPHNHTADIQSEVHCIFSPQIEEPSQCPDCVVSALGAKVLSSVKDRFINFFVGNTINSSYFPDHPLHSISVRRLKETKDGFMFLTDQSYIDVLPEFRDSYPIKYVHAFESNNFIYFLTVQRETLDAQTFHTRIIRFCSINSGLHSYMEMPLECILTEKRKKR
Sequence of c-Met (P08581 308-932 limits assumed): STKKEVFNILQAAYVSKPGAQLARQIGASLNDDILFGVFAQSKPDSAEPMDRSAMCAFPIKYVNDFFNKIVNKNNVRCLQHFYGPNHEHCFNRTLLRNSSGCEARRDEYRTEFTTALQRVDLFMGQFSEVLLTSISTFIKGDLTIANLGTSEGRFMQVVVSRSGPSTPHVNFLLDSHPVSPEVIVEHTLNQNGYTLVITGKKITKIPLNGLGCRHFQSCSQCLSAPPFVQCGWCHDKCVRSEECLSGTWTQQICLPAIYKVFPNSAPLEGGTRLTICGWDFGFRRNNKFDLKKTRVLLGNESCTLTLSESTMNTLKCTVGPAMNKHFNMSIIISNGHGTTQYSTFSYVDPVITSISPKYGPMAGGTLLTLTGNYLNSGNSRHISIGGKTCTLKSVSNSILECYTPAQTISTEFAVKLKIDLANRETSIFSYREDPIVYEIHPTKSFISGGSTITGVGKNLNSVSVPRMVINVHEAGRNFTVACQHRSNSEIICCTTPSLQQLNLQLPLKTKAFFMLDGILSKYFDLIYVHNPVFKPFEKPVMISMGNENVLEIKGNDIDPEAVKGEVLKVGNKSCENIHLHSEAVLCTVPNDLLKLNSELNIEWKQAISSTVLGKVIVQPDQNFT

binding to SEMA domain (SEMA domain): did not bind
B1: 223C4: murine anti-c-Met monoclonal antibody, IgG1 kappa; heavy chain SEQ ID No. 20, light chain SEQ ID No. 23 (antibody, V domains shown)
VH: EVLLQQSGPELVKPGASVKIPCKASGYTFTDYNMDWVKQSHGMSLEWIGDINPNNGGTIFNQKFKGKATLTVDKSSSTAYMELRSLTSEDTAVYYCARGRYVGYYYAMDYWGQGTSVTVSS
VL: DIQMTQSPASLSVSVGETVTITCRASENIYSNLAWYQQKQGKSPQLLVYAATNLVDGVPSRFSGSGSGTQYSLKINSLQSEDFGSYYCQHFWGPPYTFGGGTKLEIK
modifications: mus musculus
effect on spheroid growth [1, 2]: reduced significantly
inhibitory effect on tube formation in presence of HGF (SK-HEP-1 cells): full inhibitory effect
agonist effect on tube formation, alone (SK-HEP-1 cells): No agonistic effect
inhibition of dimerization (c-Met): 55%

binding to SEMA domain (SEMA domain): did not bind
B2: 224G11: murine anti-c-Met monoclonal antibody, IgG1 kappa; heavy chain SEQ ID No. 18, light chain SEQ ID No. 21 (antibody, V domains shown)
VH: EVQLQQSGPELVKPGASVKISCKTSGYIFTAYTMHWVRQSLGESLDWIGGIKPNNGLANYNQKFKGKATLTVDKSSSTAYMDLRSLTSEDSAVYYCARSEITTEFDYWGQGTALTVSS
VL: DIVLTQSPASLAVSLGQRATISCRASESVDSYANSFMHWYQQKPGQPPKLLIYRASNLESGIPARFSGSGSRTDFTLTINPVEADDVATYYCQQSKEDPLTFGSGTKLEMK
modifications: mus musculus
effect on spheroid growth [1, 3]: markedly inhibited
inhibitory effect on tube formation in presence of HGF (SK-HEP-1 cells): partial but significant inhibition
agonist effect on tube formation, alone (SK-HEP-1 cells): No agonistic effect
inhibition of dimerization (c-Met): 32%

binding to SEMA domain (SEMA domain): able to bind
B3: 11E1: murine anti-c-Met monoclonal antibody, IgG1 kappa; heavy chain SEQ ID No. 62, light chain SEQ ID No. 63 (antibody, V domains shown)
VH: QVQLQQSGAELAKPGASVKMSCKASGYTFTSYWMNWVKQRPGQGLEWIGYINPTTGSTDYNQKLKDKATLTADKSSNTAYMQLSSLTSEDSAVYYCAIGGYGSWFAYWGQGTLVTVSA
VL: QIVLTQSPAIMSASPGEKVTLTCSASSSVSSTYLYWYQQKPGSSPKLWIYTTSILASGVPARFSGSGSGTSYSLTISSMETEDAASYFCHQWSSYPFTFGSGTKLDIK
modifications: mus musculus
effect on spheroid growth [1, 2]: reduced significantly
effect on spheroid growth [1, 3]: markedly inhibited
inhibitory effect on tube formation in presence of HGF (SK-HEP-1 cells): full inhibitory effect
agonist effect on tube formation, alone (SK-HEP-1 cells): No agonistic effect
inhibition of dimerization (c-Met): 69%
